Assay results: article PMC13399020 (The FASEB Journal, 2026)
Substitutions are numbered along the chain they refer to. Numbers in names are those of the source. Where “and” joins values, the source holds several entries; their conditions need not be identical. Identical values can stand only once.

B1: C-terminal peptide DNAJC12(176-198) (peptide, UniProt Q9UKB3 176-198, looked up)
peptide: HLRFRWSKDAPSELLRKFRNYEI
notes: only its last seven residues 192-KFRNYEI-198 are printed; also called C-terminal DNAJC12 peptide; CTD peptide; source: synthetic peptide, bought: GenScript
B2: MBP-PAH(33-112) (domain or fragment, human, UniProt P00439 33-112, looked up)
chain: GAISLIFSLKEEVGALAKVLRLFEENDVNLTHIESRPSRLKKDEYEFFTHLDKRSLPALTNIIKILRHDIGATVHELSRD
notes: Derived from pMAL-c5x/PAH (GenScript); Dimer in 1 mM L-Phe by SEC-MALS; theoretical monomer 52.9 kDa with MBP; also called MBP-PAH(RD); PAH(RD); source: E. coli K12 TB1, purified
B3: tyrosine hydroxylase (TH) (enzyme)
chain: not shown
modifications: biotin (EZ-Link NHS-PEG4-Biotin) in the BLI experiment only
notes: tyrosine hydroxylase (TH); The methods tell neither plasmid nor purification of TH; also called unliganded TH
B4: phenylalanine hydroxylase, wild type (PAH-WT), full-length (enzyme, human, UniProt P00439 1-452, looked up)
chain: MSTAVLENPGLGRKLSDFGQETSYIEDNCNQNGAISLIFSLKEEVGALAKVLRLFEENDVNLTHIESRPSRLKKDEYEFFTHLDKRSLPALTNIIKILRHDIGATVHELSRDKKKDTVPWFPRTIQELDRFANQILSYGAELDADHPGFKDPVYRARRKQFADIAYNYRHGQPIPRVEYMEEEKKTWGTVFKTLKSLYKTHACYEYNHIFPLLEKYCGFHEDNIPQLEDVSQFLQTCTGFRLRPVAGLLSSRDFLGGLAFRVFHCTQYIRHGSKPMYTPEPDICHELLGHVPLFSDRSFAQFSQEIGLASLGAPDEYIEKLATIYWFTVEFGLCKQGDSIKAYGAGLLSSFGELQYCLSEKPKLLPLELEKTAIQNYTVTEFQPLYYVAESFNDAKEKVRNFAATIPRPFSVRYDPYTQRIEVLDNTQQLKILADSINSEIGILCSALQKIK
modifications: biotin (EZ-Link NHS-PEG4-Biotin) in the BLI experiments only
notes: phenylalanine hydroxylase (PAH), human, wild type; RD residues 1-110, CD 111-410, OD 411-452; Homotetramer; a minor octamer is also seen; also called full-length PAH
B5: PAH-p.R261Q (enzyme, human)
chain: B4 chain with R261Q
notes: phenylalanine hydroxylase (PAH), human, disease-associated variant p.R261Q; Derived from pMAL-c5x/PAH, which encodes human PAH-WT; called tetrameric in the legends; also called PKU-associated variant PAH-p.R261Q; source: E. coli K12 TB1, purified

Columns and labels:
[1] = molecular target: B4; assay: differential scanning fluorimetry; thermal unfolding of PAH (1.92 μM) with SYPRO Orange at increasing DNAJC12(176-198) peptide (0-16 μM); Tm1 followed; settings: both partners purified
[2] = molecular target: T1, DNAJC12, wild type, full-length (human, UniProt Q9UKB3 1-198); assay: SEC; with 1 mM L-Phe in sample and running buffer; 20 μM (subunit) PAH, PAH variant or MBP-PAH construct with 20-40 μM DNAJC12 or truncated DNAJC12; Superdex 200 Increase, 4°C, 20 mM Na-Hepes pH 7.0, 200 mM NaCl; complex fraction also checked by SDS-PAGE; settings: both partners purified
T1 construct: J-domain 14-76, linker-helix 87-100, CTD 176-198; also called DNAJC12-WT

[3] = molecular target: the molecule itself; assay: SEC-MALS; MBP-PAH(RD) (4 mg/mL) alone or with DNAJC12 (4 mg/mL); Superdex 200 Increase, 20 mM Na-Hepes pH 7.0, 200 mM NaCl, 1 mM L-Phe
[4] = molecular target: T1, DNAJC12, wild type, full-length; assay: BLI; without L-Phe; biotinylated PAH or TH on streptavidin biosensors, DNAJC12 0.01-4 μM in solution; 25°C, PBS, 0.02% Tween-20, 0.5 mg/mL BSA; responses against concentration fitted to a one-site hyperbola; settings: both partners purified
[5] = molecular target: T1, DNAJC12, wild type, full-length; assay: BLI; with 1 mM L-Phe; biotinylated PAH on streptavidin biosensors, DNAJC12 0.01-4 μM in solution; 25°C, PBS, 0.02% Tween-20, 0.5 mg/mL BSA; responses against concentration fitted to a one-site hyperbola; settings: both partners purified
[6] = molecular target: the molecule itself; assay: SEC-MALS; PAH (2 mg/mL) and pre-purified PAH:DNAJC12 complex (2 mg/mL); Superdex 200 Increase, 20 mM Na-Hepes pH 7.0, 200 mM NaCl, without L-Phe supplementation

Row | binding result [2] | Kd [4] | Binder | other results
1 |  |  | B1 | binding result [1]: binds
2 | binds |  | B2 | stoichiometry N [3]: 2 subunits in the oligomer
3 |  | 138 ± 34 nM | B3 | 
4 |  | 508 ± 59 nM | B4 | Kd [5]: 139 ± 19 nM; stoichiometry N [6]: 8 subunits in the oligomer and 4 subunits in the oligomer
5 | binds |  | B5 | 
